# Where a chain is given by its changes, count along the chain named.
# T1: matriptase (Homo sapiens, UniProt Q9Y5Y6)
# T1 sequence (Q9Y5Y6 1-855): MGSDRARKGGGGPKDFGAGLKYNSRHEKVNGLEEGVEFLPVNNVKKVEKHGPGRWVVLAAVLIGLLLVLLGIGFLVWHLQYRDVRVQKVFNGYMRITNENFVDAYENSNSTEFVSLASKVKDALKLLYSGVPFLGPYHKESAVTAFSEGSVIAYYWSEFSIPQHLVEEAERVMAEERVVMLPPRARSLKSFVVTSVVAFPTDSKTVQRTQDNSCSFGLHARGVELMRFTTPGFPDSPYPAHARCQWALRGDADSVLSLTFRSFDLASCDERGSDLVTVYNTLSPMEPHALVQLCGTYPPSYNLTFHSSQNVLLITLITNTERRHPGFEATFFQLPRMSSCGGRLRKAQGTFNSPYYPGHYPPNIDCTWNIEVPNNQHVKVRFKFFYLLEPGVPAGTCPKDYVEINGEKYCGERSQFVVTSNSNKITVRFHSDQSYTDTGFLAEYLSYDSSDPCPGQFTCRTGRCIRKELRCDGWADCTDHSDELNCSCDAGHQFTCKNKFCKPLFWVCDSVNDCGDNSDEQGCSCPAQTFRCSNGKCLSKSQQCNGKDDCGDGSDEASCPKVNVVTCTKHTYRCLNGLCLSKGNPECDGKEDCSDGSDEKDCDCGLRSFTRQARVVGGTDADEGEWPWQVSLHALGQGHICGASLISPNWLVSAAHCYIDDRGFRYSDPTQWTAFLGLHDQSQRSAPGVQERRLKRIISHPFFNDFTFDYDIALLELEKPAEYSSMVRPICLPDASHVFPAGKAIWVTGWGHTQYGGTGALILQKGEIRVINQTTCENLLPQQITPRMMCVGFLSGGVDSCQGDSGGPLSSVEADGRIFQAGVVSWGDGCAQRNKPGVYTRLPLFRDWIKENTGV
# T2: matriptase (Homo sapiens, UniProt Q9Y5Y6)
# T2 construct: from tissue; host or cells: human milk
# T2 sequence (Q9Y5Y6 615-855 limits assumed): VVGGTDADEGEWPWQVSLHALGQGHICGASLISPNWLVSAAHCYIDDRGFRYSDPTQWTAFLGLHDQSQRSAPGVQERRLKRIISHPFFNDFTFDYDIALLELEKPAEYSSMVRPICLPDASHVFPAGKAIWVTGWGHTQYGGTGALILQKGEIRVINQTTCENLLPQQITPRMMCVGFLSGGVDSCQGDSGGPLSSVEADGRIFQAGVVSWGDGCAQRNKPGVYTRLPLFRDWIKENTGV
# T2 sequence (Q9Y5Y6 190-614 partner limits assumed): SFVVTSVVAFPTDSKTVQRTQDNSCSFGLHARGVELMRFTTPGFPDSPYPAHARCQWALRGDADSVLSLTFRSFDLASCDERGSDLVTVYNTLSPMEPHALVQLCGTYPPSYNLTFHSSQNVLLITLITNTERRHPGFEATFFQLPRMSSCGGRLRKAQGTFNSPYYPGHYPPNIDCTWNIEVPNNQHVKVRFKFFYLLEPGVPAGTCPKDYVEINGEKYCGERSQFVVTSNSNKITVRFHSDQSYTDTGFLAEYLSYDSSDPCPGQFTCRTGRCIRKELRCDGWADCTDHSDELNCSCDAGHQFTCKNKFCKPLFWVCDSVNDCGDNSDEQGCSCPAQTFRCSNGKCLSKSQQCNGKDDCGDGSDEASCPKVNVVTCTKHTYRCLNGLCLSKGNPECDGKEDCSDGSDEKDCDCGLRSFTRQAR
# T3: soybean-derived Bowman-Birk inhibitor (BBI), P01055
# T3 chain: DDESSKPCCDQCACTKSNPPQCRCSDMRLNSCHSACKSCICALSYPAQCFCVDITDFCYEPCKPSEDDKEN
# T4: 40-kDa fragment of hepatocyte growth factor activator inhibitor-1 (HAI-1)
# T4 chain: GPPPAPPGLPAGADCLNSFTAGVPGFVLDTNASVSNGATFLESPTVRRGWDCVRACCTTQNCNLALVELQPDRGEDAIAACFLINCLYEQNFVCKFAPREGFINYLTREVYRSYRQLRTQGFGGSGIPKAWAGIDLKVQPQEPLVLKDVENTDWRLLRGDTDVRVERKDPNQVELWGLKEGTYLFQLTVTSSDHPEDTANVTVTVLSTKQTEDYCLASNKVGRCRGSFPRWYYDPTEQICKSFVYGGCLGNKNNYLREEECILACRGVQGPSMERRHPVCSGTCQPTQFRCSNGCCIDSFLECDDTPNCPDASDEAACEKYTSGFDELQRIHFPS
# B1: placenta bikunin: second Kunitz-type inhibitor with two Kunitz domains, isolated from human placenta (protein, UniProt O43291 28-252, looked up)
# Kunitz-type protease …: ADRERSIHDFCLVSKVVGRCRASMPRWWYNVTDGSCQLFVYGGCDGNSNNYLTKEECLKKCATVTENATGDLATSRNAADSSVPSAPRRQDSEDHSSDMFNYEEYCTANAVTGPCRASFPRWYFDVERNSCNNFIYGGCRGNKNSYRSEEACMLRCFRQQENPPLPLGSKVVVLAGLFVMVLILFLGASMVYLIRVARRNQERALRTVWSSGDDKEQLVKNTYVL
# B2: BBI: soybean-derived Bowman-Birk inhibitor of serine proteases (protein)
# chain: T3 chain
# B3: HAI-1: Kunitz-type serine protease inhibitor, cognate inhibitor of matriptase, co-purified from human milk (protein, UniProt O43278 36-529, looked up)
# Kunitz-type protease …: GPPPAPPGLPAGADCLNSFTAGVPGFVLDTNASVSNGATFLESPTVRRGWDCVRACCTTQNCNLALVELQPDRGEDAIAACFLINCLYEQNFVCKFAPREGFINYLTREVYRSYRQLRTQGFGGSGIPKAWAGIDLKVQPQEPLVLKDVENTDWRLLRGDTDVRVERKDPNQVELWGLKEGTYLFQLTVTSSDHPEDTANVTVTVLSTKQTEDYCLASNKVGRCRGSFPRWYYDPTEQICKSFVYGGCLGNKNNYLREEECILACRGVQGGPLRGSSGAQATFPQGPSMERRHPVCSGTCQPTQFRCSNGCCIDSFLECDDTPNCPDASDEAACEKYTSGFDELQRIHFPSDKGHCVDLPDTGLCKESIPRWYYNPFSEHCARFTYGGCYGNKNNFEEEQQCLESCRGISKKDVFGLRREIPIPSTGSVEMAVAVFLVICIVVVVAILGYCFFKNQRKDFHGHHHHPPPTPASSTVSTTEDTEHLVYNHTTRPL
# B4: two-chain (active) form of matriptase, milk-derived, released from its complexes (protein)
# chain 1: T2 sequence (Q9Y5Y6 190-614 partner limits assumed) with G202R, V203R, P204A, A205C
# chain 2: T2 sequence (Q9Y5Y6 615-855 limits assumed)
# Tests used:
# [1] = molecular target: human plasmin (Homo sapiens, UniProt P00747); settings: cited from earlier work
# Chain of human plasmin (P00747 581-810 limits assumed): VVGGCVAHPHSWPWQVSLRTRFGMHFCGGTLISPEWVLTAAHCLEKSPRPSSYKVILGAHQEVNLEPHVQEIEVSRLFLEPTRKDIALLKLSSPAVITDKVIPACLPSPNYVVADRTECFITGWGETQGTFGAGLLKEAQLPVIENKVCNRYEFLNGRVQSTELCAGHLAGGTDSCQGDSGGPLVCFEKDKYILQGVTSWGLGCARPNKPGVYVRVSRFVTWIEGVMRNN
# Chain of human plasmin (P00747 97-580 partner limits assumed): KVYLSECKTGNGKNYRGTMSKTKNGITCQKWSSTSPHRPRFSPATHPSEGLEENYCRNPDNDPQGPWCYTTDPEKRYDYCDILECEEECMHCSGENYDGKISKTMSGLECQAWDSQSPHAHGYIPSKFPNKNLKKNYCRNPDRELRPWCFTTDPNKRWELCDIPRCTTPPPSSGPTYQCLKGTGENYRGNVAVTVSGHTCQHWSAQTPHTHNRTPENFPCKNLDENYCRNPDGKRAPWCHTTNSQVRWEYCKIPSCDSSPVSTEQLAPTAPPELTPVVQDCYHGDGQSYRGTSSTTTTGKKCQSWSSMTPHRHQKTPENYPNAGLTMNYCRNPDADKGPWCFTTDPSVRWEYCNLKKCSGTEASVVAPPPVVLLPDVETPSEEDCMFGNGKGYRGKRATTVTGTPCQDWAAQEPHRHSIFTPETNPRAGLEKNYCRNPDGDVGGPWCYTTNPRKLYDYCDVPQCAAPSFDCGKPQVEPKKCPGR
# [2] = molecular target: human tissue kallikrein (Homo sapiens, UniProt P06870); settings: cited from earlier work
# Chain of human tissue kallikrein (P06870 25-262): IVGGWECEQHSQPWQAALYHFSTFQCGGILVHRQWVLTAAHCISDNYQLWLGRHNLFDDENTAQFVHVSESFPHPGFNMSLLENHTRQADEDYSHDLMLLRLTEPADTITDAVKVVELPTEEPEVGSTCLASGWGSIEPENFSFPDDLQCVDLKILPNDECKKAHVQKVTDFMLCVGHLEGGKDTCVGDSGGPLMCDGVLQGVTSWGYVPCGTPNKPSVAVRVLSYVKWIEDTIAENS
# [3] = molecular target: human plasma kallikrein (Homo sapiens, UniProt P03952); settings: cited from earlier work
# Chain of human plasma kallikrein (P03952 20-638): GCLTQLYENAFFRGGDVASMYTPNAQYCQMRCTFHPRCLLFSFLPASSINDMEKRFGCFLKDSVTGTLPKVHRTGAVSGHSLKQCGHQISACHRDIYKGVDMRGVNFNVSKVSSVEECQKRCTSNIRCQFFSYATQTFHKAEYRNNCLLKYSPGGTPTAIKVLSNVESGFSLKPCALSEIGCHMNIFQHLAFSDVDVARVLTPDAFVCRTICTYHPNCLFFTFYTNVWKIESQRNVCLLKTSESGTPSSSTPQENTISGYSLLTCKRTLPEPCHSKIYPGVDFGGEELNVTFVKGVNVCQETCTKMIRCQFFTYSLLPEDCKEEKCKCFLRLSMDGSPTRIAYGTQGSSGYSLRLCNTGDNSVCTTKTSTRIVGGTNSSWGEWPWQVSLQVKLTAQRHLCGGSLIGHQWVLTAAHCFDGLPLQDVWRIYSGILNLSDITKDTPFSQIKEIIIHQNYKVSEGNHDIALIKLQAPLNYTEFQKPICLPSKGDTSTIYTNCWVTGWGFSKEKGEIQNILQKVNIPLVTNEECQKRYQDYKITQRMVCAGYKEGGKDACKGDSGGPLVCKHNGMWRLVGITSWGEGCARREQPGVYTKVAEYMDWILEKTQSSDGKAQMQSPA
# [4] = molecular target: human factor XIa (Homo sapiens, UniProt P03951); settings: cited from earlier work
# Chain of human factor XIa (P03951 388-625 limits assumed): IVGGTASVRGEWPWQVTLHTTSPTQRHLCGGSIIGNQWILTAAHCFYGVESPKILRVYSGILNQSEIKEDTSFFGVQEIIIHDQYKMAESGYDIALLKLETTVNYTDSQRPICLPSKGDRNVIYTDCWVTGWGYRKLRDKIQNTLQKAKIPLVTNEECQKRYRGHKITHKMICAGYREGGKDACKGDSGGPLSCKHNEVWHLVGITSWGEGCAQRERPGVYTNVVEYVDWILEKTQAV
# Chain of human factor XIa (P03951 19-387 partner limits assumed): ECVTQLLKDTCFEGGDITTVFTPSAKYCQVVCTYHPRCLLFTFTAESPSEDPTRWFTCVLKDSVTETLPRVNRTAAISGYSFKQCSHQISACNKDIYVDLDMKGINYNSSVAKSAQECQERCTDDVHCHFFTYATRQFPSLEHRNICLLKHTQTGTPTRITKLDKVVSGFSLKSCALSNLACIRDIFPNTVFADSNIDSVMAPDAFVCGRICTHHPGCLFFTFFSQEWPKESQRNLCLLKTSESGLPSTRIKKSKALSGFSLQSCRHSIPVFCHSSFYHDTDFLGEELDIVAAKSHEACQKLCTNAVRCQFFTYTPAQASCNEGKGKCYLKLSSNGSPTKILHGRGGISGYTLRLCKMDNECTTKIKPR
# [5] = molecular target: T1, matriptase; experiment: Fluorescent substrate assay and zymography with BBI; format: biochemical
# Method: A concentrate of BBI, BBIC, can be administered in dosage sufficient to obtain a blood level of 0.001 to 1 mM concentration of BBI in the blood as a means of inhibiting tumor initiation in a susceptible to breast cancer. As indicated by presence of matriptase in nipple aspirate or in tissue from biopsy, including tissue from needle biopsy. […] BBI interacts directly with the serine protease active site on matriptase.
# [6] = molecular target: T2, matriptase; experiment: Gelatin zymography of matriptase/HAI-1 preparation; format: biochemical
# Method: (§1) Matriptase and HAI-1 were isolated from human milk by anti-matriptase mAb 21-9 immunoaffinity chromatography, as described in Example 1, and were maintained in an uncomplexed status in elution buffer, 0.1 M glycine, pH 2.4. This preparation was brought to pH 8.5, incubated at 37° C. for 0, 5, 30 and 60 min., and subjected to immunoblotting using anti-matriptase mAb 21-9 (panel A), gelatin zymography (panel B), and to a cleavage rate assay using the synthetic, fluorescent substrate, BOC—Gin—Ala—Agr-7-amido 4-methylcoumarin (panel C). […] A milk-derived, matriptase-related 110-kDa protease (as indicated in panel A), which was not a complex of matriptase and HAI-1, and whose migration on SDS gel was reduced after boiling (see Example 1).
# Gelatin zymography: Gelatin zymography was carried out as previously described with some modifications (Brown et al., Biochem J. 101: 214-228 (1966)). Gelatin (1 mg/ml), as a substrate, was copolymerized with regular SDS-polyacrylamide gel. Electrophoresis was performed at a constant current of 15 mA. The gelatin gels were washed 3 times with PBS containing 2% Triton X-100 and incubated in PBS at 37° C. overnight.
# Inhibition of matriptase activity by the interaction with HAI-1: HAI-1, a protein containing contains two protease inhibitory domains (Kunitz domains), was initially identified as a binding protein of matriptase. […]
# [7] = molecular target: T2, matriptase; experiment: Cleavage rate assay with fluorescent substrate BOC-Gln-Ala-Arg-AMC after matriptase/HAI-1 complex formation; format: biochemical; settings: pH 8.5
# Method: as §1
# Proteolytic activity of matriptase determined by cleavage of trypsin substrate, BOC—Gln—Ala—Arg—AMC: A variety of synthetic, fluorescent protease substrates with arginine or lysine as P1 sites can be cleaved by matriptase, as described in Example 2. Among these substrates, t-butyloxycarbonyl (BOC)—Gln—Ala—Arg-7-amino-4-methylcoumarin (Sigma; St. Louis, Mo.) is likely to be the best one. Using this substrate, matriptase was assayed in 20 mM Tris buffer pH 8.5 at 25° C. in a total volume of 200 μl. The final substrate concentration was 0.1 mM. The rate of cleavage was determined with a fluorescence spectrophotometer (Hitachi, F-4500). […]
# [8] = molecular target: T3, soybean-derived Bowman-Birk inhibitor …
# [9] = molecular target: T4, 40-kDa fragment of hepatocyte growth …
# [10] = after 30 and 60 min incubation at 37° C.
molecule,measurement,setting,value
B1,inhibition of human plasmin,[1],strong inhibition
same,inhibition of human tissue kallikrein,[2],strong inhibition
same,inhibition of human plasma kallikrein,[3],strong inhibition
same,inhibition of human factor XIa,[4],strong inhibition
B2,effect on matriptase activity,[5],decrease matriptase activity in a dose-dependent manner
B3,gelatinolytic activity by gelatin zymography,[6]; [10],negligible activity
same,gelatinolytic activity of complexed matriptase,"[6]; after 5 min incubation at 37° C., versus uncomplexed matriptase",much weaker activity
same,activity by cleavage of fluorescent substrate,[7]; [10],negligible activity
same,"cleavage rate for fluorescent substrate, remaining",[7]; after 5 min incubation at 37° C.,18%
B4,matriptase activity by fluorescent substrate assay and zymography,[8],BBI can decrease matriptase activity in a dose-dependent manner
same,"cleavage rate of the fluorescent substrate BOC-Gln-Ala-Arg-7-amido-4-methylcoumarin after 5 min at 37° C., pH 8.5",[9],"the cleavage rate for fluorescent substrate was significantly reduced, down to 18%"
same,"gelatin zymography and cleavage of fluorescent substrate after 30 and 60 min at 37° C., pH 8.5",[9],negligible activity was observed by gelatin zymography (panel B) and by cleavage of fluorescent substrate
same,"rate of cleavage of a synthetic, fluorescent substrate",[9],"the rate of cleavage of a synthetic, fluorescent substrate by matriptase was decreased following complex formation"

# From patent US7355015B1, “Matriptase, a serine protease and its applications” (Georgetown University School of Medicine, priority 1999, dated 2008)
